US20210079056A1

Key:
[1] = molecular target: rat CNP receptor (NPR-B) (rat) (UniProt P16067); assay: cell-based or functional assay
[2] = molecular target: rat ANP receptor (NPR-A) (rat) (UniProt P18910); assay: cell-based or functional assay
rat ANP receptor (NPR-A) (rat), sequence (P18910 29-1057): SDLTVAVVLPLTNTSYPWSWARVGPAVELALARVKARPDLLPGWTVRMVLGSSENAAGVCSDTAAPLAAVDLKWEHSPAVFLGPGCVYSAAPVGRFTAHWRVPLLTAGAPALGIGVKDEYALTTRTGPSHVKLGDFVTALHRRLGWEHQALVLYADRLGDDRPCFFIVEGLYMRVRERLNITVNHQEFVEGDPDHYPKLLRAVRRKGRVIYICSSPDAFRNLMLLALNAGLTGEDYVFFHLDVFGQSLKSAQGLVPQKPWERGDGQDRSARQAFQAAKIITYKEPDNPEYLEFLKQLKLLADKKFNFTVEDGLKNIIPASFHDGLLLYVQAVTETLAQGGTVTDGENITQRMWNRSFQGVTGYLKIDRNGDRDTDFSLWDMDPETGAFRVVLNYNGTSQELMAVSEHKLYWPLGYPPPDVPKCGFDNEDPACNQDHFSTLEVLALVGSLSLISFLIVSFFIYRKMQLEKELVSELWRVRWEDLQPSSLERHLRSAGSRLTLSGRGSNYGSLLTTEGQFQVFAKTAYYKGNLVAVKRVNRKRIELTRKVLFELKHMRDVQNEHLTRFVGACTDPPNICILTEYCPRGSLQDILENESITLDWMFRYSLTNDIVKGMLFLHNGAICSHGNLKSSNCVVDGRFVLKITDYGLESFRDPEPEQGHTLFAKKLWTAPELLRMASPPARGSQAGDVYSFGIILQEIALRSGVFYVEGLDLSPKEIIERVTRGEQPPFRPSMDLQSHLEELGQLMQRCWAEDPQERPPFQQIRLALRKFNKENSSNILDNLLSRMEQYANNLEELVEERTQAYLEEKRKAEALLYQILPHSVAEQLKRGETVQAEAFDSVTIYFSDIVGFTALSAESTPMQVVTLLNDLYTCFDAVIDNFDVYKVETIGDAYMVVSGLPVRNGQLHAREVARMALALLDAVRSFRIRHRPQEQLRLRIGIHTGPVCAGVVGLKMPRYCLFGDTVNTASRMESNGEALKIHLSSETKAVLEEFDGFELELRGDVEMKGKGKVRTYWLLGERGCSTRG

rat CNP receptor (NPR-B) (rat), sequence (P16067 17-1047): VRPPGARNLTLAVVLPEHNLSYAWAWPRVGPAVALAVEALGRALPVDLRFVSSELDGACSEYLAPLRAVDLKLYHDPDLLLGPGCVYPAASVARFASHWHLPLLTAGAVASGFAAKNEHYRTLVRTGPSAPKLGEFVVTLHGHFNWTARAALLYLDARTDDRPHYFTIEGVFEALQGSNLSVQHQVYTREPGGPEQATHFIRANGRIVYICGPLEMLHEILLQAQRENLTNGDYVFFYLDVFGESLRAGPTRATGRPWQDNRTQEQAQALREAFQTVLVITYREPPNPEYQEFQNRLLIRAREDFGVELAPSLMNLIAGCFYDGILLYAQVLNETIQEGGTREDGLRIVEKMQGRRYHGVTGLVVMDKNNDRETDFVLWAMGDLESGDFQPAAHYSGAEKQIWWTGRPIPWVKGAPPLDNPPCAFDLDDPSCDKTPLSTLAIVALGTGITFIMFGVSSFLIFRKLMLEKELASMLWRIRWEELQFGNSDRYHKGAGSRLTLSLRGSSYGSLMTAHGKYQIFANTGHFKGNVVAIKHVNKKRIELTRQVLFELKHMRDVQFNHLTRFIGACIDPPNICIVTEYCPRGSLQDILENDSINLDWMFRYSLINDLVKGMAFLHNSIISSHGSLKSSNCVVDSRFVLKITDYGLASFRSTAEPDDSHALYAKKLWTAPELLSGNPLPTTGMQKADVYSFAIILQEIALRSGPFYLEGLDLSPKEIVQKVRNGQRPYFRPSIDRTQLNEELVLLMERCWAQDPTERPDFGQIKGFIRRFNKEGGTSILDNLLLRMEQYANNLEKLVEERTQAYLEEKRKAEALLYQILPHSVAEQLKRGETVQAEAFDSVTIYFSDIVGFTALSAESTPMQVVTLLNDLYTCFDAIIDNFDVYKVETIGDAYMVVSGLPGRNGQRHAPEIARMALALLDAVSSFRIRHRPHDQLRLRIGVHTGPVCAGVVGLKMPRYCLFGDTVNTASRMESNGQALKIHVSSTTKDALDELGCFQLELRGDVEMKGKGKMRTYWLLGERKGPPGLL

CNP (Bachem, H-1296) (peptide)
EC50, luminescence of cGMP reporter cells [1]: 0.024 nM

BNP (Bachem, H-5968) (peptide)
EC50, fluorescence of cGMP reporter cells [2]: 2.9 nM

ANP (Bachem, H-2100) (peptide)
EC50, fluorescence of cGMP reporter cells [2]: 0.22 nM
